The text below walks through data of the DeepSol protein solubility set.

The data set is described as follows: soluble on expression in E. coli; label from the status in PepcDB or PDB records.
On to “MIINKPSRVRPDGRGKVTGELKYMTDLSFPGMLYGKVLRSAYPHAEIVSVCTIKAEKMEGVQAVVTHKDVPGLNRFGIVIPDQPVLCEDRVRYVGDAIAAVAAETEEIAEAALELIQVEYKELEVMDSPEKALRPNAQRLHEDGNILHRAFFSNGDVEEGFQASDTVFEETYELPRQMHTYMETEGGVAVPEDDGGFTMYAGTQHGYKDRFQLARIFDIPEEKIRIVSSPMGGSFGGKDELNIQPYAALLALKSGRPVKIHQTRKESVRSGIKRHPMKITIKTGADHSGNLLAHDVKIVADTGAYATLGPAVLDFSVEHAAGPYRIPNIRTEGISVFTNNGVAGEFRGFGGNQITFALETHLDRLSGMLGIDPLELRRKNIRKPHDLGPLEHRIAPTDGAAQVLNAISKSPILKKTSRNCGYLQRGTGAAITMHGGGLGFGRMDAAGGRLSLSSEGKITASFGFEECGQGILAAIEQIVMEELGCAAEDISIVIGDTAKVPKSGSSTASRGTSMVWHAIQRLKKPFLAQLKKRAAEWSGCSAENLIPGAAGLRDKNTKALVVTYKELAEKGPLAEETAFDFPTTPDPVVGGHFLYSFGAAAVEVEVDLLTGDVKLIDCEHAIAAGPVVSPQGYRGQIEGGAAMALGYTLMEEAKMTDGRYAAENLDHYLIPGIKDVPDMKLIAIEDLMKGDVYGPRGVGEIGTIAITPAIVKAVHDAVGCWINKLPISREELLEAIDRKGLKQWT”, for which the “soluble on expression in E. coli” value is “not soluble”.

As to “MIIVKNHKFKLDLLQNEANKEKFEGNTACSTAAYTLVREDASTGLTYTADISKVGNQISGEPAQRIKIREHRRIPKFDLPNLKVSKVYKLPLEASYAKGLLLLLIFCFGLSGCNTSKRLPYSHKYSYKELSKDDPHNLTYKGHYKVGKNYKIKGKTYKPHNPKSFTETGYASWYGGLKDGFHGKKTANGDRFNRNLLTAAHKTLPLPCLVKVTNKANNKAVILMVNDRGPFKKNRIIDVSQRAAEILAFKNQGITKVKIEYLPNETEKFLKNINLKKPQSKTLAKNSKKSSSNKVTNNNKCSVNCHIKLINLKYKLAVTP”, the “soluble on expression in E. coli” value was “soluble”.

With “MIKESTLHISFMAVRQTMRRVISRIVPPREVEDIVQETYVRICQVENKEAIKQPRSFLLKTAKNLAIDHLKRADIRLVDTVDNMAEFEHLVSADDAIYQQVATDKEFAQFCEAIRQLPIQCRKAFVLKKVYGYSQKEIAKKLAISESTVEKHIGLGVKRCTYFMMQLTKEERTETMKNSKKTHQVRRDL”, the “soluble on expression in E. coli” value is recorded as “not soluble”.

Regarding “MIKKDYAQIKETLYTETLENGLKVYLLPKNDFQKTYGLFTTDYGSIDNTFVPIGQEEMIEVPDGIAHFLEHKMFEKEDGDVFQKFGQQGASANAFTSFTKTSYLFSTTDQVTQNLETLLDFVQSPYFTKETVEKEKGIIGQEIQMYLDDPNWRLFFGILGNLYPKHPLHIDIAGTVASIAEITAEDLYTCYNTFYHPSNMTLFVVGKMDPEALMAFIRENQAAKEFPAAQPIRRHFPEETAADIVKESAIEMTVTRAKVLVGLKGLDEVPTTGRDLMKYQVTVNLLLQLLFGNTSQNYLALYDEGLLDDSFSYDFNLDRSFHFADIGGDSEQPEVLAERIEAILLSATTSPELTEENLSLLKKKMIGKYFQSLNSLEYIANQFSQSLFGETTLFDKIEVIESIQLADVRQVAETFIREEGLSRFYMYPKGETEQ”, the “soluble on expression in E. coli” value was “not soluble”.

For “MIKKVIKRDGREKDFDILRIEHAIKKAEKSIEVNECWDDDALCDILMKIDETNLKKIEIEKVQDIVIDVLNKYNKNVAKAYSDYRKERTKIRQDKSNLMKIIDKIGVETDRDNANVGNNFSSKLLRIASESNKVHNLLK”, the “soluble on expression in E. coli” value is “not soluble”.

In the case of “MIKMAQLEDIRKMYFMEGLSIREINRRTGIHRDTISKYISLEEPKPPKYKLTKERTHPVLGPYIPMIKQIIEDDKTRHRKQRHTGTKIFETLKKEGFSGGYNTVMDYLRKEYRKQREAFLPLEFELGAYAEVDWTEAYFYLKGKETKAHLFVMKLRGSGGFYVRAYPFEKQEAFFDGHIKCFEFMNG”, the “soluble on expression in E. coli” value is given as “not soluble”.

With “MIKNPKVLILTAHYGNGHVQVAKTLEQTFRQKGIEDVIVCDLFGESHPFITDITKYLYLKSYTIGKELYRLFYYGVEKIYDKKIASWYANFGRKRLKTLLQVEKPDIVINTFPIIAVPELKKQTGISIPVYNVLTDFCVHKIWIHREVDRYFVATDHVKELMVDIGVPAEQIVETGIPIRSSFELKVNPEIIYTKYQLCKNKKILLIVAGAHGVLGNVKELCQSFMSVPNLQVVVVCGKNEALKQDLLSLQKQNSDALKVFGYVENIDELFRVTSCMITKPGGITLSEAAALQVPVILYKPVPGQENENAMYFERKGAAVVIRDDSEVFAKTEALLQDDVKLLQMKEAMKSIYLPEPAGHIVDAILAENHAEPRHIPIKSPALAQSFTLEHHHHHH”, the “soluble on expression in E. coli” value is recorded as “not soluble”.

As to “MIKQVGNTQINPLHRLTCHCGKVELELTLPNGIEKPRRCDCSMCRRRGAIVASVPLSGIRIVQGDDVLKLYQFNTHTAKHFFCSECGIYTHHQRRSDPSEYGYNVGCLEGVNPYELGDIEVMDGVNHPSDRLEHHHHHH”, the “soluble on expression in E. coli” value is on record as “not soluble”.

Regarding “MIKTGELKYIEEKIERREDLDEDDIVYMYDEADVNDLGKLARSITDKISGKRVSFVSNIILNYTNICNVRCKFCAFYRKSGEYDAYTMTPDGVIDEIRKYYPYGIRQILIQGGVNPNLDLDYYLTVFRKIRENFTEAGINGLSAAEINFISKKAHLTYEETILKLKEAGLETIPGAGAEILDEDVRVKLGRPRGSGRQWLEIMETAHRLGVKTTATMVYGHIESSMDKARHLISIRNLQKKYHGFLSFTPWNMEPDNTELQKEGILKYRAGAEDVIRNIAISRIVFNYDLPIIQSSWLTNGVEMGQLAILYGANDWGGTIYDEKVIPATGKRVGNLRKEIIIRSIKDLGMVPVERDNLYREIAVYE”, the “soluble on expression in E. coli” value is listed as “not soluble”.

As to “MILELDCGNSLIKWRVIEGAARSVAGGLAESDDALVEQLTSQQALPVRACRLVSVRSEQETSQLVARLEQLFPVSALVASSGKQLAGVRNGYLDYQRLGLDRWLALVAAHHLAKKACLVIDLGTAVTSDLVAADGVHLGGYICPGMTLMRSQLRTHTRRIRYDDAEARRALASLQPGQATAEAVERGCLLMLRGFVREQYAMACELLGPDCEIFLTGGDAELVRDELAGARIMPDLVFVGLALACPIE”, the “soluble on expression in E. coli” value is given as “not soluble”.

As for “MILSMTGFGKHTIQFADKKITATIKSLNSKQFDLSTKISSRYRDRELPLRALVSADIGRGKVDFSLFLEESGSTDVVSQIFDTEKMSSYFFQLKEFGEKMGVEVPAGGWFEQLLRIPGVIQIDEDKEEEIPEDEWAVVIETCRRALDQLIGFREQEGAMLEQVFTEKISNISSLLLQIEQYEPDRIQRIKERIEENLTKISEKDYDKNRFEQEMIYYIEKLDVNEEKHRLRNHLSYFLQTMQGEPGQGKKLSFIAQEIGREINTLGSKSNHVEMQQIVVQMKDELEQIKEQVLNVL”, the “soluble on expression in E. coli” value is recorded as “not soluble”.

In the case of “MILVDSDVLIAHLRGVVAARDWLVSARKDGPLAISVVSTAELIGGMRTAERREVWRLLASFRVQPATEVIARRAGDMMRRYRRSHNRIGLGDYLIAATADVQDLQLATLNVWHFPMFEQLKPPFAVPGHRPRA”, the “soluble on expression in E. coli” value was “not soluble”.

As for “MILYDAIMYKYPNAVSRKDFELRNDGNGSYIEKWNLRAPLPTQAELETWWEELQKNPPYEPPDQVELLAQELSQEKLARKQLEELNKTLGNELSDIKLSLLSLKGDYAELEHHHHHH”, the “soluble on expression in E. coli” value is on record as “soluble”.

In the case of “MIMEHEYRLEVRGYELDSFGHVNNAVYLNYLEAARWDLCSKLNLTDYNESNELFIVVIETNIKYIRELKLFDKVLIKTELTYEDDYLIFKHNIYNEVTKRKASVAKSKMVLVSKQRIIYEIPQFIKDKLDICAYGLEHHHHHH”, the “soluble on expression in E. coli” value is given as “not soluble”.

For the sequence “MIMFNYQQTSQSCVKCGKCIPSCTIYNIHPDEVTSPRGFIDLLGAYQRGELELDKNAKDIFEKCFLCTNCTYVCPNLLPTDQVIENVRAEIAQKFGIAWFKRAYFFLLRNRWLMDWGLEHHHHHH”, the “soluble on expression in E. coli” value is given as “not soluble”.

On to “MINHIEEPSSMDAHAVSFRVEKDDLSGAVSWVARNLPTKPTQPVLRAVVITADDEGLEFAGFDYEVSTKVHINADVRQPGRIAVAGKLMSDIIGTLPNKTIEVFVEGTQVQVVCGSSRFELPLIPLDEYPPLPQLPAVTGAIDPNLFTDAVLQVAAAAGRDETLPMLTGIHMEIDGENVTLTATDRFRLALRRFTWSPANPEAKAKLLIPAKNLSDNARSLDSGSTEPVEIAVGTGENIGAEGLFGIHIDNRQTTTRMLDADFPNVSPLLPKVHNAMASVEISALSDAIRRVALVAERNAQIRMQFTRDEVILSAGGSDAGHAEESVPCAFTGDQEFLIAFNSAYLRDGLSVIRTSRVVFGFTEPSRPAIMIPEPETLPEASADGTYPTPDTEFTYLLMPVRLPG”, for which the “soluble on expression in E. coli” value is recorded as “soluble”.

Turning to “MINLTHIASSLARAALSDSTKPKMERAINVASHIAGKVALQVTSSLLEQKGLLNERQQKGLSMILKALSGKEPVNNVETHEGGGRFNLARAAFDVASVVWERDKSMHNVMSFLGVSDSKGKMLFSLGKKLADAMAKPEPGKDNSEATNARHAYFSSNLKLNKLMNDLTDQVFNKIR”, the “soluble on expression in E. coli” value is recorded as “not soluble”.

In the case of “MINSPRVCIQVQSVYIEAQSSPDNERYVFAYTVTIRNLGRAPVQLLGRYWLITNGNGRETEVQGEGVVGVQPLIAPGEEYQYTSGAIIETPLGTMQGHYEMIDENGVPFSIDIPVFRLAVPTLIHMGHHHHHHSH”, the “soluble on expression in E. coli” value was “not soluble”.

As to “MIPDQRRELMLRQLRKHQVLSVHQLMEMFDCSHMTIRRDIAQLEQEGRAYSVTGGVRIASQVHSEPSHQSKAVVELPHKQGMARLAAGLLHPDMTIYLDAGTSTLEIVPHIIALSGMTVVTNDFGVVNALADAAHVDVIHTGGLLDHPNRSSVGGLAAATLRQLATDVAFMSTSSWDLQRGTTTPSALKVEVKQAAMQSASQTVLVATSSKYGTFGMYKVAGLDQFDTIISDAALAEAAADGIRKQRIELLLAPVGGRSKLEHHHHHH”, the “soluble on expression in E. coli” value was “not soluble”.

Regarding “MIPDTEQELINQYLKKISKIPLLTPEEEKELARRAKQGDKEALKKLVESNLRFVVSVAKQYIGYGLPFSELIAAGNLGLLEAAKRFDPDRGVKFISYAVWWIRQAIMQALSQQTGAVRIPLKQSHIINKISHIYGELSKKLEREPSPEEIAEELSKQMIAKELEKELGREPTEEEIEERFKKEGYKITPEEVEKYLQVCRVPLSLDAPVGENEDTFFIDFLSKHGTAEVEEKVIQEVIQKEIDDLLSKLTDKERKVIELRFGLKGNEPKTLREIGEILGLSRERVRQLETRALRKLRSLAMKRHLKDFLS”, the “soluble on expression in E. coli” value is reported as “soluble”.

For “MIPRRSCWLILLLNLLNVQSLLDASWWSTVAQLSTALAGHNVKPVCELPGLSPGQAQVCELFKDHMPAVSIGAQNAIQECQRQFTGHRWNCSTHYSTGMLGPIHKMATREAAFTYAILSAGVTHEIGRRCKQGLLTSCGCSDETKPKNVPTDWSWGGCGDNVEYGYKFSRDFIDIREKEHDPKRNHDNGRSLMNRRNNEAGRKILKRHRKPKCKCHGVSGACNMKTCWMQLPSMEQVGKILRNKYDKAIRVQINDRGNLQLLADEATKERKTRALPTDLVFMDDSPDYCRFDRHSGTLGTEGRVCKRGSGGAEGCDSLCCGRGYNTYTQEVKSKCNCKFEWCCKVVCQTCNNVTQVDICK”, the “soluble on expression in E. coli” value is “not soluble”.

On to “MIPSVSPQQDALTGQPLRVVERDGVHYTLLGTAHISQASVAAVKQEVESGCYDAIAVELDAQRLQALCDPDTLAKLDLIQVIRKGQLALFAANLALAAYQRRLAKQLGIEPGAELKTAVTMARERDLPVHLIDREVGLTFKRASAKLGFLGKMKLGGGLIAGLFAADEVGEEEIEKLKQGDMLEASFGDFANESPELYQTIIAERDRYMATRLREEVNSATPKVLVVVGAGHLTGLAKHLENDTEPPTELRALLEKVQQKKR”, for which the “soluble on expression in E. coli” value is given as “not soluble”.
